Laboratory results: the supplement of paper PMC9170038

Experiments:
MS2 coat protein [1] = experiment: apparent KD of MS2 coat protein; higher = weaker reporter binding; details: Eterna round: R101
Protocol: (§1)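 RNA-MaP: designed FMN/MS2 RNA switches (84 nt design region) are transcribed on-chip within common flanks and titrated with SNAP-549-labelled MS2 coat protein (about 1-3000 nM) in 100 mM Tris pH 7.5, 80 mM KCl, 4 mM MgCl2, without or with 200 uM FMN. Median apparent KD per design; activation ratio = KD,OFF / KD,ON.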

MS2 coat protein [2] = experiment: apparent KD of MS2 coat protein; designed switch direction (-1 OFF switch, 1 ON switch): 1; higher = weaker reporter binding; details: Eterna round: R98
Protocol: as §1

MS2 coat protein [3] = experiment: apparent KD of MS2 coat protein, switch ON state; designed switch direction (-1 OFF switch, 1 ON switch): 1; higher = weaker reporter binding; details: FMN input: 0 or 200 uM; Eterna round: R93 (includes R88 designs)
Method in brief: (§2)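 Apparent KD per design is the median of normalised cluster binding-curve fits. Designed RNA switches transcribed on-chip from Illumina sequencing clusters were titrated with SNAP-549-labelled MS2 coat protein in twofold steps from 0.7 or 1.5 nM to 3 µM, with 0.8–1.5 h down to 10–20 min per step. Buffer: 100 mM Tris-HCl pH 7.5, 80 mM KCl, 4 mM MgCl2, without or with constant ligand.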

MS2 coat protein [4] = experiment: apparent KD of MS2 coat protein, switch OFF state (with FMN for OFF switches, without FMN for ON switches); designed switch direction (-1 OFF switch, 1 ON switch): 1; higher = weaker reporter binding; details: FMN input: 0 or 200 uM; Eterna round: R93 (includes R88 designs)
Method in brief: as §2

Sequence	apparent KD of MS2 coat protein (MS2 coat protein [2]; input ligand: FMN 200 uM) [nM]	apparent KD of MS2 coat protein (MS2 coat protein [2]; input ligand: none) [nM]	apparent KD of MS2 coat protein (MS2 coat protein [3]) [nM]	apparent KD of MS2 coat protein (MS2 coat protein [4]) [nM]	also measured
GUCAGCUCGUGAGGAUAUACAUCACUGCUUCGGCAGUGUAUUAAGAUCACAUGAGGAUCACCCAUGUAGAAGGCACGAGCUGAU [#SameSwitchNG2InvertedNG3 NG2 A1] (puzzle (switch architecture): Exclusion NG 2)					apparent KD of MS2 coat protein (MS2 coat protein [1]; input ligand: FMN 200 uM): 201 nM; apparent KD of MS2 coat protein (MS2 coat protein [1]; input ligand: none): 14.6 nM
AAAUAACUUGAAGGAUAUCAGGGUGCACCUCAGUAAAACUGAGGUGCACCCUGAGAAGGUCGAGGAUCACCCGAUCUAAAUAAA [#SharedSequence SLExNG1: 3-2] (puzzle (switch architecture): Small Loop Exclusion NG 1)					apparent KD of MS2 coat protein (MS2 coat protein [1]; input ligand: FMN 200 uM): 13.5 nM; apparent KD of MS2 coat protein (MS2 coat protein [1]; input ligand: none): 9.19 nM
AAAACAUGAGGAUCACCCAUGUAAAGAUCGGUUAUUAAAAGUGAGGAUAUACAAAAUUUUAUAUAGUAGAAGGCACUGGGUACA [JR_SSNG3_Sub001]	28.9	27.8			
GCUCUCACUUGAGGAUAUCGAGUGGAAUACACUCGAGAAGGCAGGAAAACCUGAGGAUCACCCAGGUAACUGGAAAGAGAGCAA [Same State NG1 - A3C, U17G Submission 5G-G46A]	20.3	16.1			
UAACUAAUAUACACAUGAGGAUCACCCAUGUCCACCCGUGGACAGGAUAUCUGGCCGCGCCGGCUGGAGAAGGGUCCGUAUUGU [Arianesge]	172	56.2			
GGCAGCCUUCAGAAGGGAGUGCGAUAAUCGCACUCAGGAUAUGAGGAUCACCCAUAUCAAGCUGCCACUGAGGCAAAGCCUCAG [#SharedSequence - IEx NG 2-1] (puzzle (switch architecture): Inverted Exclusion NG 1)					apparent KD of MS2 coat protein (MS2 coat protein [1]; input ligand: FMN 200 uM): 12.1 nM; apparent KD of MS2 coat protein (MS2 coat protein [1]; input ligand: none): 10.8 nM
GCACUCAAGUUAGGAUAUGGAUCGGAAAACGAUCCAGAAGGAACAUGAAAACAUGAGCAUCAGCCAUGUUCCAGAAACGAGUGC [SameSame 13 - Jieux - Same State NG 1]	22.8	69.9			
GCAGAAGGUGCGGAGGAUCACCCUGUAAGGAUAUGCAUUAGCAAGGAUAUACAGAGGAUCACCCUGUAGAAGGUGCACUUCUAA [pwkr2 ssNG3 DX.7]	1290	1170			
GUAGCUAUCGGAGGAUAUUCAUAGCCGAGAGGCACAUGAGGAUCACCCAUGUGCGGAAACGCUUGGGAGAAGGCCGAUAGCUAC [Mat - Same State NG 2 - JL Mod - D77]	14.3	21.5			
CCACAACAUUGAGGAUAUGCACAGGAUCACCGUGUAGAAGGCAUCAGGGAGAAGGUGCAGAGGAUCACCCUGUAAGGAUAUCUA [pwkr2 ssNG1 DX.8]	133	340			
UUUGGGAGCACAGGAUAUGGCACCUCGACCGUGCCAGAAGGGUGAUUCUGUUGGUGGCCACAUGAGGAUCACCCAUGUGCCUCC [Araterin]	21.5	275			
GACGAAAUCUUAGGAUAUCGAGUGGAAUACACUCGAGAAGGAAGAUAUACCUGAGGAUCACCCAGGUAAAACUGGACGUCAAUA [Same State NG1 - A3C, U17G Submission 8H U68A, U7A]	26.6	29.8			
GGACAUCCCACAGGAUAUGCUGGACUUUGUCCAGCAGAAGGGUGAAACAUGAGGAUCACCCAUGUAAGGAUGUCCAUAUUUAAU [Denovo 40]	217	2190			
GCUGUCGCAUGAGGAUAUGGUCACGUUUCGUGACCAGAAGGCAUGUCAAUAGACAUGAGGAUCACCCAUGUAGUAAAGACAGCA [Mat - Same State NG 1 - JL Mod - D40]	35.1	386			
CCGAUGCAAAUAAAACAUGAGGAUCACCCAUGUGAGUCUCAUGAGGAUAUGCAGGUCUUUGACUUGCAGAAGGCAUGGCGUCGG [Mat - Same State NG 3 - JL Mod - D70]	138	1050			
GUAGCAUACUGAGGAUAUUCAUAUAAUAAAUAAACAUGAGGAUCACCCAUGUGGCGAAAGCCUUGGGAGAAGGCAGAAUGCUAC [Xeonanis 55 7]	38.3	511			
AAAAAACAUGAGGAUCACCCAUGUGAGAAUAUGGAAGGAUAUACAAAGACGAAAGUCAAAGUAGAAGGUCUAAAAG [Mat - Same State 1 - Eli mod - D90]			31.1	31.5	
AACUAACAUGAGGAUCACCCAUGUAUUCAAACAUGAGGAUAUAUAACACAUCAUCAACAGAUAGAAGGCAUAAAUA [JR_SS001_Sub1204]			93	82.3	
CGAAGACAUGAGGAUCACCCAUGUGGGAAUAUGGGAGGAUAUACAAAGACGAGAGUCAGAGUAGAAGGCCUAGGAC [salish99-ss1-108]			26.5	75.5	

Sequence	apparent KD of MS2 coat protein (MS2 coat protein [2]; input ligand: FMN 200 uM) [nM]	apparent KD of MS2 coat protein (MS2 coat protein [2]; input ligand: none) [nM]	apparent KD of MS2 coat protein (MS2 coat protein [3]) [nM]	apparent KD of MS2 coat protein (MS2 coat protein [4]) [nM]	also measured
GGGAGACAUGAGGAUCACCCAUGUGAGAAGAGGCGAGGAUAUCGAAAGAAAGAAGAGAAACGAGAAGGCGCGAGGA [salish99-SS1-051]			37.7	44.7	
AACAAUCUAUCUGAGGAUAUCAUGUCAAAGACAUGAGGAUCACCCAUGUUGCAGGAAACUGCUCAUGAGAAGGCAGAUAGAUUGA [SS2: 1129]			41	828	
AGAAGACAUGAGGAUCACCCAUGUGCACGUGGAGGAGGAUAUGCUAGUAGAAGAUAGAAUGCAGAAGGCCUAAGAA [Mat - Mod]			51.9	38.5	
AACAAUCUAUCUGAGGAUAUGAUGUCAAAGACAUGAGGAUCACCCAUGUCCAGGAAAACUGGAUAUCAGAAGGCAGAUAGAUUGA [SS2: 1104]			10.2	12.9	
AAUAUACAUGAGGAUCACCCAUGUAUUAAUAGCUGAGGAUAUACGGGUGAAAAUAGCAUAGUAGAAGGCGGGUGUA [SameState1 Malc#10]			107	144	
AAGAAACAUGAGGAUCACCCAUGUAAAUUCAAGAGAGGAUAUCGUACAUGGAAGAUUCAACGAGAAGGCUCUAGAA [Pariah 3 (MS2 Riboswitches - Same State 1)]			19.3	83	
AAGAAACAUGAGGAUCACCCAUGUAAGAUAAACACAGGAUAUGCGAAUAAAAUAAAUAAAGCAGAAGGGUGAAGAA [Mat - Same State 1 - Tesla mod - D150]			17.1	34.3	
AUAUAUAAAAGGUAGGAUAUUCUAAAAUAAACAUGAGGAUCACCCAUGUAAAGAAAGAAACUCAUGGAGAAGGACCAUAUAUAUA [ss2 5th modifying Eli's mod of Tesla]			45.6	156	
AUUCCAAAUAGUCAGGAUAUCAGGCGUAAGACAUGAGGAUCACCCAUGUACUUAGUAAAAGUAACUGAGAAGGGACAGGGUGUAA [JR_SS002_Sub407]			8.64	18.5	
AAAAAAAAAGUCGAGGAUAUCCACAUGGCUACAUGAGGAUCACCCAUGUGAAGAAAAGCACAUGAGGAGAAGGCGACAAAAAAAAA [Tightrope]			11.6	24.5	
GUGCACAUUCGAGGAUAUCGGAGAGGAGUCCUUCGAGAAGGCGAUUCAUGCUGUGUUAUUCUGGACAUGAGGAUCACCCAUGUG [LRO019_SS NG 1 mod JR_SSNG1_Sub034]	107	149			
AGCGAACAUGAGGAUCACCCAUGUGAAAAACAUAGAGGAUAUGUCGCAUGCGUGUAAAAGACAGAAGGCUAUCGCG [Mat - Mod of Nando]			24	52.1	
AAGAAACAUGAGGAUCACCCAUGUACCCAAAAGGCAGGAUAUGGGAAAGAAAGAAAGAAACCAGAAGGGCCAUGAA [Sogdianus]			30.1	57.1	
AGAAAACAUGAGGAUCACCCAUGUAGAAAUAUGGGAGGAUAUACGAAGACGAAAGUCAAAGUAGAAGGCCUAAGAA [Mat - Same State 1 - Eli mod - D108]			18.8	51.7	
AAAGAAAAACUAGAGGAUAUUUGAAUGGUAACAUGAGGAUCACCCAUGUGAAGAAAGGAACAUGAGGAGAAGGCUAGAAGAAAAA [JL Nando mod 16]			17.5	74.7	
AGAAAUAAAGGAGAGGAUAUUCAAAAAGGGACAUGAGGAUCACCCAUGUAAAAGAAAAUAAAAUGGGAGAAGGCUCUAAAUAAAG [80%, More Helter Skelter 2]			49.6	47.2	
AUAAAACAUGAGGAUCACCCAUGUAAAAAUAUGGAAGGAUAUACGUAGUAAAAUAAAUACGUAGAAGGUCCAAAAA [SS! MT 21]			15	19.7	
CAGGACCUAGGAUAGGAUAUAUGAAUAAUUACAUGAGGAUCACCCAUGUCCAUUUAUAUGGGAACAUAGAAGGGUUGUGGUUAUG [Mat - Same state - Malcolm Mod - D133]			179	118	
